# Substitutions are numbered along the chain they refer to. Numbers in names are those of the source.
# B1: CE115HA000/GLS3000 P95G one-arm antibody (antibody, human IgG1, kappa, L234A L235A, N297A, name in Kabat numbering)
# heavy: QVQLVESGGGVVQPGRSLRLSCAASGFTFSNAWMHWVRQAPGKGLEWVAQIKAKSNNYATYYAESVKGRFTISRDDSKNSLYLQMNSLKTEDTAVYYCRYVHYGAYYGVDAWGQGTTVTVSSASTKGPSVFPLAPSSKSTSGGTAALGCLVKDYFPEPVTVSWNSGALTSGVHTFPAVLQSSGLYSLSSVVTVPSSSLGTQTYICNVNHKPSNTKVDKKVEPKSCDKTHTCPPCPAPEAAGGPSVFLFPPKPKDTLMISRTPEVTCVVVDVSHEDPEVKFNWYVDGVEVHNAKTKPREEQYASTYRVVSVLTVLHQDWLNGKEYKCKVSNKALPAPIEKTISKAKGQPREPQVYTLPPSRCELTKNQVSLSCAVKGFYPSDIAVEWESNGQPENNYKTTPPVLDSDGSFFLVSKLTVDKSRWQQGNVFSCSVMHEALHNHYTQKSLSLSPDYKDDDDK
# chain: EPKSSDKTHTCPPCPAPELLGGPSVFLFPPKPKDTLMISRTPEVTCVVVDVSHEDPEVKFNWYVDGVEVHNAKTKPREEQYNSTYRVVSVLTVLHQDWLNGKEYKCKVSNKALPAPIEKTISKAKGQPREPQVCTLPPSRDELTKNQVSLWCLVKGFYPSDIAVEWESNGQPENNYKTTPPVLDSDGSFFLYSKLTVDKSRWQQGNVFSCSVMHEALHNRYTQKSLSLSP
# light: DIVMTQSPLSLPVTPGEPASISCRSSQSLVHSNRNTYLHWYQQKPGQAPRLLIYKVSNRFSGVPDRFSGSGSGTDFTLKISRVEAEDVGVYYCGQGTQVGYTFGQGTKLEIKRTVAAPSVFIFPPSDEQLKSGTASVVCLLNNFYPREAKVQWKVDNALQSGNSQESVTEQDSKDSTYSLSSTLTLSKADYEKHKVYACEVTHQGLSSPVTKSFNRGEC
# notes: one-arm IgG1
# B2: CE115HA000/GLS3000 S56M one-arm antibody (antibody, human IgG1, kappa, L234A L235A, N297A, name in Kabat numbering)
# heavy: B1 heavy
# chain: B1 chain
# light: B1 light with S61M, G100P
# notes: one-arm IgG1
# B3: CE115HA000/GLS3000 S56P one-arm antibody (antibody, human IgG1, kappa, L234A L235A, N297A, name in Kabat numbering)
# heavy: B1 heavy
# chain: B1 chain
# light: B1 light with S61P, G100P
# notes: one-arm IgG1
# B4: CE115HA000/GLS3000 Q93E one-arm antibody (antibody, human IgG1, kappa, L234A L235A, N297A, name in Kabat numbering)
# heavy: B1 heavy
# chain: B1 chain
# light: B1 light with Q98E, G100P
# notes: one-arm IgG1
# B5: CE115HA000/GLS3000 R54P one-arm antibody (antibody, human IgG1, kappa, L234A L235A, N297A, name in Kabat numbering)
# heavy: B1 heavy
# chain: B1 chain
# light: B1 light with R59P, G100P
# notes: one-arm IgG1
# B6: CE115HA000/GLS3000 S56N one-arm antibody (antibody, human IgG1, kappa, L234A L235A, N297A, name in Kabat numbering)
# heavy: B1 heavy
# chain: B1 chain
# light: B1 light with S61N, G100P
# notes: one-arm IgG1
# B7: CE115HA000/GLS3000 R54T one-arm antibody (antibody, human IgG1, kappa, L234A L235A, N297A, name in Kabat numbering)
# heavy: B1 heavy
# chain: B1 chain
# light: B1 light with R59T, G100P
# notes: one-arm IgG1
# B8: CE115HA000/GLS3000 R54G one-arm antibody (antibody, human IgG1, kappa, L234A L235A, N297A, name in Kabat numbering)
# heavy: B1 heavy
# chain: B1 chain
# light: B1 light with R59G, G100P
# notes: one-arm IgG1
# B9: CE115HA000/GLS3000 R54W one-arm antibody (antibody, human IgG1, kappa, L234A L235A, N297A, name in Kabat numbering)
# heavy: B1 heavy
# chain: B1 chain
# light: B1 light with R59W, G100P
# notes: one-arm IgG1
# B10: CE115HA000/GLS3000 S56F one-arm antibody (antibody, human IgG1, kappa, L234A L235A, N297A, name in Kabat numbering)
# heavy: B1 heavy
# chain: B1 chain
# light: B1 light with S61F, G100P
# notes: one-arm IgG1
# B11: CE115HA000/GLS3000 S52Q one-arm antibody (antibody, human IgG1, kappa, L234A L235A, N297A, name in Kabat numbering)
# heavy: B1 heavy
# chain: B1 chain
# light: B1 light with S57Q, G100P
# notes: one-arm IgG1
# B12: CE115HA000/GLS3000 S56H one-arm antibody (antibody, human IgG1, kappa, L234A L235A, N297A, name in Kabat numbering)
# heavy: B1 heavy
# chain: B1 chain
# light: B1 light with S61H, G100P
# notes: one-arm IgG1
# B13: CE115HA000/GLS3000 Q90D one-arm antibody (antibody, human IgG1, kappa, L234A L235A, N297A, name in Kabat numbering)
# heavy: B1 heavy
# chain: B1 chain
# light: B1 light with Q95D, G100P
# notes: one-arm IgG1
# B14: CE115HA000/GLS3000 S56T one-arm antibody (antibody, human IgG1, kappa, L234A L235A, N297A, name in Kabat numbering)
# heavy: B1 heavy
# chain: B1 chain
# light: B1 light with S61T, G100P
# notes: one-arm IgG1
# B15: CE115HA000/GLS3000 R54D one-arm antibody (antibody, human IgG1, kappa, L234A L235A, N297A, name in Kabat numbering)
# heavy: B1 heavy
# chain: B1 chain
# light: B1 light with R59D, G100P
# notes: one-arm IgG1
# B16: CE115HA000/GLS3000 P95L one-arm antibody (antibody, human IgG1, kappa, L234A L235A, N297A, name in Kabat numbering)
# heavy: B1 heavy
# chain: B1 chain
# light: B1 light with G100L
# notes: one-arm IgG1
# B17: CE115HA000/GLS3000 S56G one-arm antibody (antibody, human IgG1, kappa, L234A L235A, N297A, name in Kabat numbering)
# heavy: B1 heavy
# chain: B1 chain
# light: B1 light with S61G, G100P
# notes: one-arm IgG1
# B18: CE115HA000/GLS3000 Q93A one-arm antibody (antibody, human IgG1, kappa, L234A L235A, N297A, name in Kabat numbering)
# heavy: B1 heavy
# chain: B1 chain
# light: B1 light with Q98A, G100P
# notes: one-arm IgG1
# B19: CE115HA000/GLS3000 Q93D one-arm antibody (antibody, human IgG1, kappa, L234A L235A, N297A, name in Kabat numbering)
# heavy: B1 heavy
# chain: B1 chain
# light: B1 light with Q98D, G100P
# notes: one-arm IgG1
# B20: CE115HA000/GLS3000 R54S one-arm antibody (antibody, human IgG1, kappa, L234A L235A, N297A, name in Kabat numbering)
# heavy: B1 heavy
# chain: B1 chain
# light: B1 light with R59S, G100P
# notes: one-arm IgG1
# B21: CE115HA000/GLS3000 R54Q one-arm antibody (antibody, human IgG1, kappa, L234A L235A, N297A, name in Kabat numbering)
# heavy: B1 heavy
# chain: B1 chain
# light: B1 light with R59Q, G100P
# notes: one-arm IgG1
# B22: CE115HA000/GLS3000 S52Y one-arm antibody (antibody, human IgG1, kappa, L234A L235A, N297A, name in Kabat numbering)
# heavy: B1 heavy
# chain: B1 chain
# light: B1 light with S57Y, G100P
# notes: one-arm IgG1
# B23: CE115HA000/GLS3000 Q90E one-arm antibody (antibody, human IgG1, kappa, L234A L235A, N297A, name in Kabat numbering)
# heavy: B1 heavy
# chain: B1 chain
# light: B1 light with Q95E, G100P
# notes: one-arm IgG1
# B24: CE115HA000/GLS3000 S56Q one-arm antibody (antibody, human IgG1, kappa, L234A L235A, N297A, name in Kabat numbering)
# heavy: B1 heavy
# chain: B1 chain
# light: B1 light with S61Q, G100P
# notes: one-arm IgG1
# B25: CE115HA000/GLS3000 S56L one-arm antibody (antibody, human IgG1, kappa, L234A L235A, N297A, name in Kabat numbering)
# heavy: B1 heavy
# chain: B1 chain
# light: B1 light with S61L, G100P
# notes: one-arm IgG1
# B26: CE115HA000/GLS3000 S56D one-arm antibody (antibody, human IgG1, kappa, L234A L235A, N297A, name in Kabat numbering)
# heavy: B1 heavy
# chain: B1 chain
# light: B1 light with S61D, G100P
# notes: one-arm IgG1
# B27: CE115HA000/GLS3000 S56I one-arm antibody (antibody, human IgG1, kappa, L234A L235A, N297A, name in Kabat numbering)
# heavy: B1 heavy
# chain: B1 chain
# light: B1 light with S61I, G100P
# notes: one-arm IgG1
# B28: CE115HA000/GLS3000 S52D one-arm antibody (antibody, human IgG1, kappa, L234A L235A, N297A, name in Kabat numbering)
# heavy: B1 heavy
# chain: B1 chain
# light: B1 light with S57D, G100P
# notes: one-arm IgG1
# B29: CE115HA000/GLS3000 Q90A one-arm antibody (antibody, human IgG1, kappa, L234A L235A, N297A, name in Kabat numbering)
# heavy: B1 heavy
# chain: B1 chain
# light: B1 light with Q95A, G100P
# notes: one-arm IgG1
# B30: CE115HA000/GLS3000 S52P one-arm antibody (antibody, human IgG1, kappa, L234A L235A, N297A, name in Kabat numbering)
# heavy: B1 heavy
# chain: B1 chain
# light: B1 light with S57P, G100P
# notes: one-arm IgG1
# B31: CE115HA000/GLS3000 S56K one-arm antibody (antibody, human IgG1, kappa, L234A L235A, N297A, name in Kabat numbering)
# heavy: B1 heavy
# chain: B1 chain
# light: B1 light with S61K, G100P
# notes: one-arm IgG1
# B32: CE115HA000/GLS3000 S56V one-arm antibody (antibody, human IgG1, kappa, L234A L235A, N297A, name in Kabat numbering)
# heavy: B1 heavy
# chain: B1 chain
# light: B1 light with S61V, G100P
# notes: one-arm IgG1
# B33: CE115HA000/GLS3000 S56R one-arm antibody (antibody, human IgG1, kappa, L234A L235A, N297A, name in Kabat numbering)
# heavy: B1 heavy
# chain: B1 chain
# light: B1 light with S61R, G100P
# notes: one-arm IgG1
# B34: CE115HA000/GLS3000 R54E one-arm antibody (antibody, human IgG1, kappa, L234A L235A, N297A, name in Kabat numbering)
# heavy: B1 heavy
# chain: B1 chain
# light: B1 light with R59E, G100P
# notes: one-arm IgG1
# B35: CE115HA000/GLS3000 S56E one-arm antibody (antibody, human IgG1, kappa, L234A L235A, N297A, name in Kabat numbering)
# heavy: B1 heavy
# chain: B1 chain
# light: B1 light with S61E, G100P
# notes: one-arm IgG1
# Molecular target: T1, CD3 epsilon homodimer protein (UniProt P07766 23-126)
# T1 construct: also called CD3 (CD3 epsilon)
# T1 sequence (P07766 23-126): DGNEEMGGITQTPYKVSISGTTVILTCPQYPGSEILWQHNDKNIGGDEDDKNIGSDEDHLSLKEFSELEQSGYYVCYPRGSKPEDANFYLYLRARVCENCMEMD
# Experiment: SPR (Biacore T200), CD3e homodimer on CM4 chip, antibody as analyte; KD ratio vs unaltered GLS3000;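 further: CD3 epsilon homodimer amine-coupled to the sensor surface, antibodies injected as analyte at 25 °C with HBS-EP+ running buffer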
row,KD ratio to GLS3000 [ratio],Binder
1,1.94,B1
2,0.93,B2
3,0.98,B3
4,1.05,B4
5,1.05,B5
6,0.9,B6
7,0.89,B7
8,0.88,B8
9,0.65,B9
10,1.12,B10
11,1.01,B11
12,0.96,B12
13,11.1,B13
14,1.01,B14
15,1.8,B15
16,11.7,B16
17,0.99,B17
18,0.65,B18

row,KD ratio to GLS3000 [ratio],Binder
1,0.72,B19
2,0.78,B20
3,1.04,B21
4,1.02,B22
5,0.91,B23
6,0.97,B24
7,1.03,B25
8,1.11,B26
9,1.01,B27
10,0.94,B28
11,0.89,B29
12,7.38,B30
13,1.21,B31
14,0.94,B32
15,1.15,B33
16,0.84,B34
17,0.91,B35

# Reference: US20240270846A1 (published 2024)
